Earlier results, collected in publication PMC6322933.

Target: ZPI (Homo sapiens) (UniProt Q9UK55)
Chain of UniProt Q9UK55 (Q9UK55 22-444): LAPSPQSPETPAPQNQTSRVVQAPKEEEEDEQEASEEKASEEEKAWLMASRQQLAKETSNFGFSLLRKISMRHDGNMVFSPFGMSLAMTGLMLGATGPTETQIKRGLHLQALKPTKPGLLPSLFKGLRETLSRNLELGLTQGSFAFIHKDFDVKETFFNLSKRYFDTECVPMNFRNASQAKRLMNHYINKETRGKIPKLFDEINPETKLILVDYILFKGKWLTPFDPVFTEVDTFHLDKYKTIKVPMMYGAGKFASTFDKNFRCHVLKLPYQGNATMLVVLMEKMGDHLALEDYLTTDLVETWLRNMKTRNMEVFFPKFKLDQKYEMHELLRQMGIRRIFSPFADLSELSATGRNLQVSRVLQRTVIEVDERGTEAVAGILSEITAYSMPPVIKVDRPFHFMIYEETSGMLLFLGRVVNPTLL

- Kd: 600 pM
Substance: Protein Z (from UniProt P22891)
